Test results as given in patent publication US20220324978A1 (BIOCYTOGEN PHARMACEUTICALS BEIJING, published 2022).

T1: canine PD-1 (on transfected CHO cells) (canine)
T1 construct: also called dPD-1
T1 chain: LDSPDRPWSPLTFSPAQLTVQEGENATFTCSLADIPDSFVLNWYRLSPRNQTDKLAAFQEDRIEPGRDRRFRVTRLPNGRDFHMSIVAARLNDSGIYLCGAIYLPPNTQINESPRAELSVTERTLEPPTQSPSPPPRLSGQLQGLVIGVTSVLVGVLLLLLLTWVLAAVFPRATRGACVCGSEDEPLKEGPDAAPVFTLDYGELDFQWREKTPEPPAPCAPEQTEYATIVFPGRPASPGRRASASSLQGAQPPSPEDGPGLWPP

T2: feline PD-1 (on transfected CHO cells) (feline)
T2 construct: Expressed from a vector that also expresses EGFP; also called cPD-1
T2 chain: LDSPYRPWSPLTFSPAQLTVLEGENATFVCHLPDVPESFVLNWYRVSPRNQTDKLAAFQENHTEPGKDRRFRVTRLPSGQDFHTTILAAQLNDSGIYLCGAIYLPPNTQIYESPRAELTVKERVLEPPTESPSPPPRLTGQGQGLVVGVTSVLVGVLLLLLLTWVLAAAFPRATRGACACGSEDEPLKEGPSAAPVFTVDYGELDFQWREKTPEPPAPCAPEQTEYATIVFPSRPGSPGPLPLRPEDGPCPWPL


Experiments:
[1] = target: T1, canine PD-1 (on transfected CHO cells); test: flow cytometry (MFI) on CHO cells with canine PD-1
Description: 25 μl CHO cells were added to each well.
30 μl of PBS was then added.

[2] = target: T2, feline PD-1 (on transfected CHO cells); test: flow cytometry (MFI) on CHO cells with feline PD-1 and EGFP
Description: In FIG. 9, the CHO cells were transfected with an expression vector that expresses feline PD-1 and EGFP. 25 μl purified anti-dPD-1 chimeric antibodies with different concentrations were added to each well. After being washed with PBS (1200 rmp, 5 min) twice, 50 μl of Alexa Fluor 647 labeled anti-dog IgG Fc antibody (anti-dIgG Fc-647) was added into each well at 1:500 dilution, followed by incubating at 4° C. for 30 minutes, and then PBS wash (1200 rmp, 5 min). 30 μl of PBS was then added. […] EC50 were also determined from the data.

[3] = target: T1, canine PD-1 (on transfected CHO cells); test: flow cytometry blocking assay on CHO cells transiently transfected with canine PD-1; antibody at 5 µg/mL; blocked ligand biotin-labeled dPD-L1 (5 µg/ml), detected with Streptavidin-PE
Description: (§1) The anti-dPD-1 chimeric antibodies were collected from mouse ascites fluid and purified by chromatography. 25 μl CHO cells transiently transfected with canine PD-1 were added to each well in a plate. The purified antibodies were titrated to the desired final concentrations, and were added to each well at 25 μl per well at 4° C. and incubated for 30 minutes.
(§2) After being washed with phosphate-buffered saline (PBS) twice (1200 rpm, 5 minutes), 50 μl of PE-labeled Streptavidin (Streptavidin-PE) at 1:100 dilution was added into each well, and incubated for 30 minutes at 4° C., followed by PBS wash (1200 rpm, 5 minutes). 20 μl of PBS was added. The signals for PE was detected by flow cytometry (Intellicyt).

[4] = target: T1, canine PD-1 (on transfected CHO cells); test: flow cytometry blocking assay on CHO cells transiently transfected with canine PD-1; antibody at 0.5 µg/mL; blocked ligand biotin-labeled dPD-L1 (5 µg/ml), detected with Streptavidin-PE
Description: as §1, §2

[5] = target: T1, canine PD-1 (on transfected CHO cells); test: flow cytometry blocking assay on CHO cells transiently transfected with canine PD-1; antibody at 0.05 µg/mL; blocked ligand biotin-labeled dPD-L1 (5 µg/ml), detected with Streptavidin-PE
Description: as §1, §2

[6] = target: T1, canine PD-1 (on transfected CHO cells); test: flow cytometry blocking assay on CHO cells transiently transfected with canine PD-1; antibody at 0.005 µg/mL; blocked ligand biotin-labeled dPD-L1 (5 µg/ml), detected with Streptavidin-PE
Description: as §1, §2

[7] = target: T3, human PD-1 (on transfected CHO cells) (human, UniProt Q15116 25-288); test: flow cytometry on CHO-hPD-1 cells; Anti-dog-IgG Fc-FITC (1:100)
T3 construct: also called hPD-1
T3 sequence (Q15116 25-288 limits assumed): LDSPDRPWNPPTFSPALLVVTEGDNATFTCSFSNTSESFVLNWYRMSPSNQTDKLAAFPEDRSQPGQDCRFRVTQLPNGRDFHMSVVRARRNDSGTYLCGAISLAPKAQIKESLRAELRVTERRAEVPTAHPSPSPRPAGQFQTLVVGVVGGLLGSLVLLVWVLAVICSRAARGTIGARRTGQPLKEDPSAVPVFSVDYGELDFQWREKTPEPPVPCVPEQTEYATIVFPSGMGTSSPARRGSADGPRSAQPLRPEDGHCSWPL
Description: After being washed with PBS (1200 rmp, 5 min) twice, FITC labeled anti-dog IgG Fc antibody (anti-dIgG Fc-FITC) was added into each well 1:100 dilution, followed by incubating at 4° C. for 30 minutes, and then PBS wash (1200 rmp, 5 min). The signals for FITC were determined by flow cytometry.

Binder	EC50 [1] [nM]	EC50 [2] [nM]	percent of cells in the dPD-L1-positive (PE) gate [3] [%]	percent of cells in the dPD-L1-positive (PE) gate [4] [%]	percent of cells in the dPD-L1-positive (PE) gate [5] [%]	percent of cells in the dPD-L1-positive (PE) gate [6] [%]	binding result [7]
4A7-mHvKv-dIgG4 (antibody, V domains shown, also called 4A7-mHvKv-IgG4; 4A7-mHvKv-dlgG4) VH: EVQLVESGGDLVKPGGSLKLSCVASGFPFSNFGMSWVRQTPDKRLEWVATISSGSSYSYYSDSVKGRFTISRDNAKNTLFLQMNSLKSEDTAIFYCARGESRFAYWGQGTLVTVSA VL: DVVITQDELSNPVTSGESVSISCRSNKSLLYEDGQTYLNWFLQRPGQSPQLLIYLMSTRASGVSDRFSGSGSGTDFTLEISEVRAEDVGVYYCQQLIEYPLTFGAGTKLELKR	4.81	1.53	3.37	1.7	27.1	34.1	
1B9-mHvKv-dIgG4 (antibody, V domains shown, also called 1B9-mHvKv-IgG4; 1B9-mHvKv-dlgG4) VH: QVQLQQPGAELVRPGASVKLSCKASGYTFTSFWMNWVKLRPEQGLEWIGRVDPYDSETHYNQKFKDKAILTVDKSSSTAYMQLSSLTSEDSAVYYCATQFGFSWLAYWGQGTLVTVSA VL: not shown			0.504	4.4	47	45.1	
1D8-mHvKv-dIgG4 (antibody, V domains shown, also called 1D8-mHvKv-IgG4; 1D8-mHvKv-dlgG4) VH: EVQLVESGGDLVKPGGSLKLSCAASGFTFNNFGMSWVRQNPDKRLEWVATLSSGSSYTYYSDSVKGRFTISRDNAKNTLYLQMNSLKSEDTAMYYCTRGESRFAYWGQGTLVTVSA VL: GVVITQDELSNPVTSGESVSISCRSSKSLLYKDGKTYLNWFLQRPGQSPQLLIYLMSTRASGVSDRFSGSGSGTDFTLEISRVKAEDVGVYYCQQLIEYPLTFGAGTKLELKR		7.29	4.38	0.161	18.8	39.2	no binding (tested: 10 µg/ml)
